Source: paper PMC4600334, “Myostatin blockade with a fully human monoclonal antibody induces muscle hypertrophy and reverses muscle atrophy in young and aged mice” (Skeletal Muscle, 2015)

T1: Human myostatin (human, UniProt O14793 267-375)
T1 sequence (looked up): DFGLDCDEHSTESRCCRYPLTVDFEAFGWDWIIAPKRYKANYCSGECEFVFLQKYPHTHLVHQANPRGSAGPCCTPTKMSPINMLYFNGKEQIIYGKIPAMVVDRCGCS

B1: Soluble human ActRIIB-hFc (Fc fusion, UniProt Q13705 19-133, looked up)
chain: SGRGEAETRECIYYNANWELERTNQSGLERCEGEQDKRLHCYASWRNSSGTIELVKKGCWLDDFNCYDRQECVATEENPQVYFCCCEGNFCNERFTHLPEAGGPEVTYEPPPTAP
notes: signal peptide in the construct; extracellular domain (1-133) of the human ActRIIB receptor (ACVR2B), in-frame fusion with human IgG1 Fc-domain; also called ActR2B-hFc; source: produced in Chinese hamster ovary (CHO) cells
B2: Human growth and differentiation factor 11 (ligand, UniProt O95390 299-407, looked up)
chain: NLGLDCDEHSSESRCCRYPLTVDFEAFGWDWIIAPKRYKANYCSGQCEYMFMQKYPHTHLVQQANPRGSAGPCCTPTKMSPINMLYFNDKQQIIYGKIPGMVVDRCGCS
notes: human growth and differentiation factor 11 (GDF11), purchased from R&D Systems; also called GDF11; GDF-11; source: bought: R&D Systems
B3: Human activin A (ligand, UniProt P08476 311-426, looked up)
chain: GLECDGKVNICCKKQFFVSFKDIGWNDWIIAPSGYHANYCEGECPSHIAGTSGSSLSFHSTVINHYRMRGHSPFANLKSCCVPTKLRPMSMLYYDDGQNIIKKDIQNMIVEECGCS
notes: human activin A (inhibin beta A chain), purchased from R&D Systems; source: bought: R&D Systems

What was measured:
[1] = biological target: B2; assay: cell-based or functional assay
Human activin A [2] = biological target: B3; assay: cell-based or functional assay
Human myostatin = biological target: T1, Human myostatin; assay: cell-based or functional assay
Human activin A [3] = biological target: B3; assay: SPR; Biacore T200, CM5 chip, 25 °C; ActRIIB-hFc captured through its Fc (32-39 RU) by immobilised goat anti-human Fcγ antibody; ligands injected at 40 to 0.78 nM; HBS-T (10 mM HEPES, 150 mM NaCl, 3 mM EDTA, 0.05 % P20, 10 mg/ml carboxymethyldextran, 0.5 mg/ml BSA, pH 7.4); global fit to a 1:1 model; conditions: both partners purified
[4] = biological target: B1; assay: as above; conditions: both partners purified

| IC50 of inhibition of Smad2/3 luciferase activity in A204/Smad2/3/Luc cells stimulated with a constant 0.4 nM GDF11 [1] [nM] | IC50 of inhibition of Smad2/3 luciferase activity in A204/Smad2/3/Luc cells stimulated with a constant 0.4 nM activin A (Human activin A [2]) [nM] | IC50 of inhibition of Smad2/3 luciferase activity in A204/Smad2/3/Luc cells stimulated with a constant 1 nM myostatin (Human myostatin) [nM] | Kd (Human activin A [3]) [nM] | koff (Human activin A [3]) [s⁻¹] | kon (Human activin A [3]) [M⁻¹ s⁻¹] | Kd [4] [nM] | T1/2 [4] [h] | koff [4] [s⁻¹] | kon [4] [M⁻¹ s⁻¹] | Binder |
| --- | --- | --- | --- | --- | --- | --- | --- | --- | --- | --- |
| 0.46 | 1.2 | 0.57 | 0.0866 | 7.94e-05 | 917000 |  |  |  |  | B1 |
|  |  |  |  |  |  | 0.014 | 1.87 | 0.000103 | 7.38e+06 | B2 |
|  |  |  |  |  |  |  | 2.43 |  |  | B3 |
